Results: US9725518B2, “Antibodies that bind to Jagged 1” (Cancer Research Technology Limited, priority 2013, dated 2017)

Assays:
[1] = Soluble aggregates of transiently expressed antibodies; type: physicochemical; details: Protein A purified antibody
Text: The protein yield of these antibodies, their levels of soluble aggregates and their binding affinity to the immunogen (J1-DE3) are illustrated in (Table 6).

[2] = target: T1, N1 binding to cell surface expressed hJ1 (Homo sapiens, UniProt P78504); experiment: Notch binding blocking assay (FACS): N1 EGF11-13 beads staining human J1-expressing cells; design: key: +: Complete blocking; X: No blocking
T1 construct: cell expressed full length human J1 (hJ1; HEK293 transfectants); expressed in transfected cells; host or cells: HEK293
T1 sequence (P78504 34-1218): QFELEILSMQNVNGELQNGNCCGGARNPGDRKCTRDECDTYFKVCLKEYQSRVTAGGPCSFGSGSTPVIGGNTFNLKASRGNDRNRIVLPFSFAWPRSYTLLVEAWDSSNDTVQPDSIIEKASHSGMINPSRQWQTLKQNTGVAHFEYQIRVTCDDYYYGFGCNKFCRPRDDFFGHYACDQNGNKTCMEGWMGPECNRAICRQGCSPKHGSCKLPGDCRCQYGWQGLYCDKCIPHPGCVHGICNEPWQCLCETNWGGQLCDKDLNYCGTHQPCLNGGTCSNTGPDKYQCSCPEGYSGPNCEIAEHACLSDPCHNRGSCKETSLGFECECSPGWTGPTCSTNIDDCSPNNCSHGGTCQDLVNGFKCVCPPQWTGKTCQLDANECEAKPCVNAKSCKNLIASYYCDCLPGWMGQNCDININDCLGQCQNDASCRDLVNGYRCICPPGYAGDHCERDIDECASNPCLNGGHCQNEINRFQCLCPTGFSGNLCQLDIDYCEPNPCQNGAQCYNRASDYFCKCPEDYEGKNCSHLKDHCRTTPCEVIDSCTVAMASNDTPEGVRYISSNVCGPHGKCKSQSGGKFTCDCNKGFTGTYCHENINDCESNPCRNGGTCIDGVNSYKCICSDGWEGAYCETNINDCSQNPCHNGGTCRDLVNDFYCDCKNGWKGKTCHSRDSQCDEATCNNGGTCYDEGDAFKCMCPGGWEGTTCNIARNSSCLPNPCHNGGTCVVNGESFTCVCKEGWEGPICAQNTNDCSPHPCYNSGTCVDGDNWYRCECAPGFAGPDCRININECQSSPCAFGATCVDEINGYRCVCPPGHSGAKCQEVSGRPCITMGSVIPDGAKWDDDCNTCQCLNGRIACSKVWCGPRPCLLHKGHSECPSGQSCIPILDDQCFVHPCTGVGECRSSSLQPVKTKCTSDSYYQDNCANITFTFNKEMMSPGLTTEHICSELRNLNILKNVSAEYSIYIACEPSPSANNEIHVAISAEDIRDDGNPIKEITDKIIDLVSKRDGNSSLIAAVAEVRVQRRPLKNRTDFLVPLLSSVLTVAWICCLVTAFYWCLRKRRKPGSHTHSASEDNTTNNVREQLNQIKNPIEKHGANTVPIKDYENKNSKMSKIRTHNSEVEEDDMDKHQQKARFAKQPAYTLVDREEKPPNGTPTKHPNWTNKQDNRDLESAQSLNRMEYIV
Summary of the method: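 E. coli-expressed, refolded human N1 EGF11-13 (411-526), biotinylated on avidin-coated fluorescent beads, stained human J1-transfected HEK293 cells with hybridoma supernatant or purified antibody diluted in HBSS/10% FCS. Purified mAbs titrated in dilution series; bead binding read by flow cytometry.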

MDA-MB-231 spheroids = experiment: Spheroid assay (3-D growth), MDA-MB-231; type: cell-based, human; details: humanised variants 5 μg/ml
Text: Similar findings were also reported for the Merck anti-N1 mAbs when tested on the LS-1034 cell line. As cell-cell contact is required to activate Notch signalling a spheroid-based 3-D growth model was used to test the ability of the J1 mAbs to block tumour growth. Furthermore, the 3-D model better mimics in vivo conditions including hypoxia and acidosis, allowing evaluation of the mAbs effect in a more realistic setting. Spheroids were generated from MDA-MB-231 breast cancer cells and the ability of different concentrations of the J1-65D mAb to inhibit their growth was evaluated.
Cells were harvested and resuspended in 2.5% Matrigel (BD)-complete DMEM medium. Cell suspension was plated on low-adherence 96-well plates (Corning) (200 μl/well) and spheroids, of approximately fixed cell number (5×10^3 cells for MDA-MB-231 and MDA-MB-468 cell lines; 2×10^3 for MCF7 cells) were then generated by spinning plates at 1800 rpm for 10 minutes. The following day, pictures of the spheroids were taken (day 1) and treatments were added (mAbs were used at 10 μg/ml [5 μg/ml for humanised antibodies] while DBZ was used at the concentration of 100 nM). In some experiments Paclitaxel (1 nM) and Doxorubicin (20 nM) were used in combination with J1-65D mAb treatment. Every 2 days pictures were taken and half of the medium was replaced with fresh one containing mAb/drug. At the end of the experiment, spheroids were either lysed for RNA extraction, were processed and paraffin-embedded for immunohistochemical analysis or were dissociated by pipetting and trypsinization into single cell suspensions for FACS analysis. Spheroid size was evaluated by image analysis using ImageJ software.

[3] = test system: J1-induced Notch signalling; experiment: Luciferase assay, LS174T RBPJ reporter stimulated with J1 protein; type: cell-based, human; details: humanised/chimeric mAbs 10 μg/ml, NE3-Fc; DBZ control
Description: FIG. 9. […] (A) The colorectal cancer cell line LS174T expressing luciferase under the control of Notch co-factor RBPJ was stimulated with mammalian cell-expressed soluble J1 proteins (NE3-Fc and NE12-Fc) or a control protein in the presence of J1 mAbs (10 μg/ml), and luciferase activity was measured. […] (C) Breast cancer MDA-MB-231 cells were cultured with J1 mAbs. The expression level of the Notch target gene HES1 was measured by qPCR using β2m as the control gene. In all experiments the γ-secretase inhibitor DBZ was used as a positive control for pan Notch inhibition and a control mAb (IgG2b or IgG1) or no treatment (NT) were negative controls.
FIG. 20. Inhibition of human Jagged 1/Notch signalling by humanised and de-immunised J1-mAbs in vitro. The colorectal cancer cell line LS174T expressing luciferase under the control of Notch co-factor RbPJ was stimulated with mammalian cell-expressed recombinant J1 protein (NE3-Fc protein, right bar for each treatment) or a control protein (left bar) in the presence of J1 mAbs (10 μg/ml), and luciferase activity was measured. The parental murine monoclonal antibody (Mo), Murine IgG1, DMSO and DBZ were used as controls.
Having established that the J1 mAbs were able to block the binding of the J1 ligand to its receptor N1 their effect on the activity of the Notch signalling pathway was investigated. The human colorectal cancer cell line LS174T, stably expressing a luciferase reporter gene under control of Notch co-factor RBPJ, was stimulated with two forms of immobilised J1 protein: N-terminus to EGF3 and N-terminus to EGF12. […] Importantly, the best two J1 mAbs (J1-65D and J1-183D) were also tested against other Notch ligands in order to verify ligand specificity.
Prior to experiment, clear bottom 96-well plates (CELLSTAR) wells were coated with either J1-ECD fragments (NE3-Fc and NE12-Fc), other Notch-ligands (J2 or DLL4; both from R&D) or control protein (mlgG2b) at the concentration of 5 μg/ml in 0.1% BSA-PBS (overnight incubation at 4° C.). LS174T colorectal cancer cells, expressing the luciferase gene under control of the Notch cofactor RbPJ, were then plated (4×10^4 cells/well) in the presence of different mAbs (10 μg/ml) or DBZ (100 nM). Luciferase activity was then quantified 24 hours later using the Bright-Glo Luciferase Assay System (Promega).

[4] = final antibody concentration 0.2 μg/ml
[5] = final antibody concentration 0.4 μg/ml
[6] = final antibody concentration 0.6 μg/ml
[7] = final antibody concentration 1.0 μg/ml

Molecule	% soluble aggregate [1]	Blocking of Notch1 binding to cell surface Jagged 1 [2, 4]	Blocking of Notch1 binding to cell surface Jagged 1 [2, 5]	Blocking of Notch1 binding to cell surface Jagged 1 [2, 6]	Blocking of Notch1 binding to cell surface Jagged 1 [2, 7]	spheroid growth inhibition (MDA-MB-231 spheroids)	inhibition of J1-induced luciferase activity [3]
J1-65D variant 12: humanised/de-immunised J1-65D: J1-65D_VL_3 + J1-65D_VH_4 (antibody, V domains shown) VH: QVQLVQSGAEVKKPGSSVKVSCKASGYTFTDYEMHWVRQAPGQGLEWMGAIQPGGGGTAYAQKFQGRVTITADKSTSTAYMELSSLRSEDTAVYYCTRRGYDDYPFAYWGQGTLVTVSSASTKGP VL: DIQMTQSPSSLSASVGDRVTITCRASGNIHNYLAWYQQKPGKAPKLLIYNAKTLADAVPSRFSGSGSGTDYTLTISSLQPEDFATYYCQHFWSAPWTFGQGTKLEIKRT	0.47%	X	+ (Complete blocking)	+ (Complete blocking)	+ (Complete blocking)	slightly reduced ability to inhibit spheroid growth	inhibited as effectively as by the parental murine mAb
J1-183D variant 1: humanised/de-immunised J1-183D: J1-183D_VL_1 + J1-183D_VH_1 (antibody, V domains shown) VH: QVQLVQSGAELKKPGASVKVSCKVSGYAFTDYAIHWIRQAPGQGLEWMGIINTYYGDSKYNQKFKDRVTMTVDKSTSTAYMELSSLRSEDTAVYYCARGYDGFAYWGQGTLVTVSSASTKGP VL: DIQMTQSPSSLSASVGDRVTITCRTSENIYSYLTWYQQKPGKAPKLLVYNAKILAAGVPSRFSGSGSGTDFTLTISSLQPEDFATYYCQHHYDIPWTFGGGTKLEIKRT	3.65%	X	+ (Complete blocking)	+ (Complete blocking)	+ (Complete blocking)	most comparable efficacy to the original murine antibody	inhibited as effectively as by the parental murine mAb
J1-183D variant 8: humanised/de-immunised J1-183D: J1-183D_VL_2 + J1-183D_VH_4 (antibody, V domains shown) VH: QVQLVQSGAEVKKPGASVKVSCKASGYTFTDYAIHWVRQAPGQGLEWMGIINTYYGDSKYAQKFQGRVTMTVDTSTSTAYMELSSLRSEDTAVYYCARGYDGFAYWGQGTLVTVSSASTKGP VL: DIQMTQSPSSLSASVGDRVTITCRTSENIYSYLTWYQQKPGKAPKLLIYNAKTLASGVPSRFSGSGSGTDFTLTISSLQPEDFATYYCQHHYDIPWTFGGGTKLEIKRT	0.93%	X	+ (Complete blocking)	+ (Complete blocking)	+ (Complete blocking)	increasingly less effect	inhibited as effectively as by the parental murine mAb
J1-183D variant 9: humanised/de-immunised J1-183D: J1-183D_VL_3 + J1-183D_VH_1 (antibody, V domains shown) VH: QVQLVQSGAELKKPGASVKVSCKVSGYAFTDYAIHWIRQAPGQGLEWMGIINTYYGDSKYNQKFKDRVTMTVDKSTSTAYMELSSLRSEDTAVYYCARGYDGFAYWGQGTLVTVSSASTKGP VL: DIQMTQSPSSLSASVGDRVTITCRTSENIYSYLTWYQQKPGKAPKLLIYNAKILDSGVPSRFSGSGSGTDFTLTISSLQPEDFATYYCQHHYDIPWTFGGGTKLEIKRT	3.49%	X	+ (Complete blocking)	+ (Complete blocking)	+ (Complete blocking)	increasingly less effect	inhibited as effectively as by the parental murine mAb
